Measurements: patent publication US20180208675A1
Like-named read-outs stand apart in the source and are kept apart here.

What was measured:
[1] = target: EA.hy926 cell surface associated TFPI (human) (UniProt P10646); assay: flow cytometry on EA.hy926 cells, APC anti-human IgG secondary, median fluorescence intensity
[2] = target: EA.hy926 cell surface associated TFPI (human) (UniProt P10646)
[3] = target: EA.hy926 cell surface associated TFPI (human) (UniProt P10646); remark: listed apart in the source

Binder | EC50 [1] | EC50 (read off the curve) [2] | EC50 (read off the curve) [3]
Fab 0088-Fab 0089 conjugate 9002 (bispecific antibody, C-terminal cysteine coupled through the bis-maleimide linker to the Fab 0088 heavy chain; C-terminal cysteine coupled through 1,16-N,N'-bis(maleimido)-4,13-diaza-7,10-dioxa-3,14-dioxohexadecane to the C-terminal cysteine of the Fab 0089 heavy chain) heavy 1: EVQLVESGGGLVKPGGSLRLSCAASGFTFSNYAMSWVRQTPEKRLEWVATISRSGSYSYFPDSVQGRFTISRDNAKNSLYLQMNSLRAEDTAVYYCARLGGYDEGDAMDSWGQGTTVTVSSASTKGPSVFPLAPCSRSTSESTAALGCLVKDYFPEPVTVSWNSGALTSGVHTFPAVLQSSGLYSLSSVVTVPSSSLGTKTYTCNVDHKPSNTKVDKRVESKYGPPC light 1: DIVMTQTPLSLSVTPGQPASISCKSSQSLLESDGKTYLNWYLQKPGQSPQLLIYLVSILDSGVPDRFSGSGSGTDFTLKISRVEAEDVGVYYCLQATHFPQTFGGGTKVEIKRTVAAPSVFIFPPSDEQLKSGTASVVCLLNNFYPREAKVQWKVDNALQSGNSQESVTEQDSKDSTYSLSSTLTLSKADYEKHKVYACEVTHQGLSSPVTKSFNRGEC heavy 2: QVQLQQSGAELVKPGASVKLSCKASGYTFISYYMYWVKQRPGQGLEWIGEINPSNGDTNLNEKFKSKATLTVDKSSSTVYMQLSSLTSEDSAVYYCTRWDRFDGFVYWGQGTLVTVSAASTKGPSVFPLAPCSRSTSESTAALGCLVKDYFPEPVTVSWNSGALTSGVHTFPAVLQSSGLYSLSSVVTVPSSSLGTKTYTCNVDHKPSNTKVDKRVESKYGPPC light 2: ETTVTQSPASLSMAIGGKVTIRCIISTNIDDDINWYQQKPGEPPKLLISEGNTLRPGVPSRFSSSGYGTDFVFTIENMLSEDVADYYCLQSDDLPYTFGGGTKLEIKRTVAAPSVFIFPPSDEQLKSGTASVVCLLNNFYPREAKVQWKVDNALQSGNSQESVTEQDSKDSTYSLSSTLTLSKADYEKHKVYACEVTHQGLSSPVTKSFNRGEC | 0.33 nM | 2 nM | 
mAb 2021 (antibody, human IgG4 S228P, kappa, V domains shown) VH: EVQLVESGGGLVKPGGSLRLSCAASGFTFSNYAMSWVRQTPEKRLEWVATISRSGSYSYFPDSVQGRFTISRDNAKNSLYLQMNSLRAEDTAVYYCARLGGYDEGDAMDSWGQGTTVTVSS VL: DIVMTQTPLSLSVTPGQPASISCKSSQSLLESDGKTYLNWYLQKPGQSPQLLIYLVSILDSGVPDRFSGSGSGTDFTLKISRVEAEDVGVYYCLQATHFPQTFGGGTKVEIKR | 0.11 nM |  | 1 nM
Fab 0313 (Fab fragment of mAb 2000) (Fab, V domains shown) VH: EVQLVESGGGLVKPGGSLRLSCAASGFTFSNYAMSWVRQAPGKGLEWVSTISRSGSYSYYADSVKGRFTISRDNAKNSLYLQMNSLRAEDTAVYYCARLGGYDEGDAMDSWGQGTTVTVSS VL: DIVMTQTPLSLSVTPGQPASISCKSSQSLLESDGKTYLNWYLQKPGQSPQLLIYLVSILDSGVPDRFSGSGSGTDFTLKISRVEAEDVGVYYCLQATHFPQTFGGGTKVEIKR | 25.9 nM |  | 
Fab 0094 (Fab fragment of mAb 2007) (Fab, V domains shown) VH: EVQLVESGGGLVKPGGSLRLSCAASGFTFSNYAMSWVRQAPGKGLEWVSTISRSGSYSYYPDSVKGRFTISRDNAKNSLYLQMNSLRAEDTAVYYCARLGGYDEGDAMDSWGQGTTVTVSS VL: DIVMTQTPLSLSVTPGQPASISCKSSQSLLESDGKTYLNWYLQKPGQSPQLLIYLVSILDSGVPDRFSGSGSGTDFTLKISRVEAEDVGVYYCLQATHFPQTFGGGTKVEIKR | 3.8 nM |  | 

The remaining binders from weak to strong by EC50 [1], led by results:

EC50 [1] | EC50 (read off the curve) [2] | EC50 (read off the curve) [3] | Binder
6.9 nM |  |  | Fab 0094-Fab 0089 conjugate 9004 (bispecific antibody, C-terminal cysteine coupled through the bis-maleimide linker to the Fab 0094 heavy chain; C-terminal cysteine coupled through 1,16-N,N'-bis(maleimido)-4,13-diaza-7,10-dioxa-3,14-dioxohexadecane to the C-terminal cysteine of the Fab 0089 heavy chain) heavy 1: EVQLVESGGGLVKPGGSLRLSCAASGFTFSNYAMSWVRQAPGKGLEWVSTISRSGSYSYYPDSVKGRFTISRDNAKNSLYLQMNSLRAEDTAVYYCARLGGYDEGDAMDSWGQGTTVTVSSASTKGPSVFPLAPCSRSTSESTAALGCLVKDYFPEPVTVSWNSGALTSGVHTFPAVLQSSGLYSLSSVVTVPSSSLGTKTYTCNVDHKPSNTKVDKRVESKYGPPC light 1: DIVMTQTPLSLSVTPGQPASISCKSSQSLLESDGKTYLNWYLQKPGQSPQLLIYLVSILDSGVPDRFSGSGSGTDFTLKISRVEAEDVGVYYCLQATHFPQTFGGGTKVEIKRTVAAPSVFIFPPSDEQLKSGTASVVCLLNNFYPREAKVQWKVDNALQSGNSQESVTEQDSKDSTYSLSSTLTLSKADYEKHKVYACEVTHQGLSSPVTKSFNRGEC heavy 2: QVQLQQSGAELVKPGASVKLSCKASGYTFISYYMYWVKQRPGQGLEWIGEINPSNGDTNLNEKFKSKATLTVDKSSSTVYMQLSSLTSEDSAVYYCTRWDRFDGFVYWGQGTLVTVSAASTKGPSVFPLAPCSRSTSESTAALGCLVKDYFPEPVTVSWNSGALTSGVHTFPAVLQSSGLYSLSSVVTVPSSSLGTKTYTCNVDHKPSNTKVDKRVESKYGPPC light 2: ETTVTQSPASLSMAIGGKVTIRCIISTNIDDDINWYQQKPGEPPKLLISEGNTLRPGVPSRFSSSGYGTDFVFTIENMLSEDVADYYCLQSDDLPYTFGGGTKLEIKRTVAAPSVFIFPPSDEQLKSGTASVVCLLNNFYPREAKVQWKVDNALQSGNSQESVTEQDSKDSTYSLSSTLTLSKADYEKHKVYACEVTHQGLSSPVTKSFNRGEC
0.31 nM |  |  | Fab 0088 (Fab fragment of mAb 2021) (Fab, V domains shown) VH: EVQLVESGGGLVKPGGSLRLSCAASGFTFSNYAMSWVRQTPEKRLEWVATISRSGSYSYFPDSVQGRFTISRDNAKNSLYLQMNSLRAEDTAVYYCARLGGYDEGDAMDSWGQGTTVTVSS VL: DIVMTQTPLSLSVTPGQPASISCKSSQSLLESDGKTYLNWYLQKPGQSPQLLIYLVSILDSGVPDRFSGSGSGTDFTLKISRVEAEDVGVYYCLQATHFPQTFGGGTKVEIKR
